Experimental data taken from FireProtDB (doi:10.1073/pnas.84.13.4441).

Settings: Escherichia coli (strain K12), 25 °C, GdnHCl, CD, Potassium phosphate 20 mM, reversible: yes, whole UniProt chain shown

B1: Tryptophan synthase alpha chain wild type, P0A877 (protein)
chain: MERYESLFAQLKERKEGAFVPFVTLGDPGIEQSLKIIDTLIEAGADALELGIPFSDPLADGPTIQNATLRAFAAGVTPAQCFEMLALIRQKHPTIPIGLLMYANLVFNKGIDEFYAQCEKVGVDSVLVADVPVEESAPFRQAALRHNVAPIFICPPNADDDLLRQIASYGRGYTYLLSRAGVTGAENRAALPLNHLVAKLKEYNAAPPLQGFGISAPDQVKAAIDAGAAGAISGSAIVKIIEQHINEPEKMLAALKVFVQPMKAATRS
What does the source list for B1?
unfolding free energy (pH 7): 18.2 kcal/mol; unfolding free energy (pH 9): 18 kcal/mol
